# Test results taken from patent US8642555.
# Tested on: albumin-bound form of EMC-Arg-Ser-Ser-Tyr-Tyr-Ser-Leu-PABC-DOXO (6)
substance,measurement,value
prostate-specific antigen (PSA),PSA-mediated cleavage monitored by HPLC (enzyme activity),cleaved efficiently within a few hours
